# T1: cMR1 (core RAG1, MBP fusion);cMR2 (core RAG2, MBP fusion) (;, UniProt P15919;P21784 384-1040;1-387, |)
# T1 sequence 1: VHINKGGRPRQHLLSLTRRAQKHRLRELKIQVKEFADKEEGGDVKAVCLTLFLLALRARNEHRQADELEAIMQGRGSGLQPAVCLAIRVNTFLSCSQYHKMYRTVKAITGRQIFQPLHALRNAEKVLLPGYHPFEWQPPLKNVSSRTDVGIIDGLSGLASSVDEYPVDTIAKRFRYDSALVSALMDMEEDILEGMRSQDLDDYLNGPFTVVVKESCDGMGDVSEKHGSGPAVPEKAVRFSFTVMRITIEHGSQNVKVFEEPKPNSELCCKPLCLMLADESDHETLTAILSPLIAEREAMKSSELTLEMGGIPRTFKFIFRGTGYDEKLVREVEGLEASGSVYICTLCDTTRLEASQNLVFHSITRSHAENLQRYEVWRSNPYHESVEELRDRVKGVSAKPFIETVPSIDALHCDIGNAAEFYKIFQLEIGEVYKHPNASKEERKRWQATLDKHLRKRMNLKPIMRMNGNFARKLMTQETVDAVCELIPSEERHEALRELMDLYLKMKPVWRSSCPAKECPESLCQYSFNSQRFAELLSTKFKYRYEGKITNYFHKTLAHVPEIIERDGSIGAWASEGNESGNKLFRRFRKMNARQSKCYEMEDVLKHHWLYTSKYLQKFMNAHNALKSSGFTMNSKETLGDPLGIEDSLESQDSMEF
# T1 sequence 2: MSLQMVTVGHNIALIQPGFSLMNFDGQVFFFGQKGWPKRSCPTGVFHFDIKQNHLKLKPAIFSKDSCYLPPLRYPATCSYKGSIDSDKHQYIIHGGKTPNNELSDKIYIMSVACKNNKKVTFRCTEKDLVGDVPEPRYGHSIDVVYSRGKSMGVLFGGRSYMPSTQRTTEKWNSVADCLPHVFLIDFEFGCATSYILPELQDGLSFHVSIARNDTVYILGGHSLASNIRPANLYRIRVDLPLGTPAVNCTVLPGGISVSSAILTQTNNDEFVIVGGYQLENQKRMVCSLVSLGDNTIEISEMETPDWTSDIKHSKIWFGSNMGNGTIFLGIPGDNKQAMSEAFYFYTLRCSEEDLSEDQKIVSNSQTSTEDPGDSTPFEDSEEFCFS
# Legend:
# HMGB1 Tailless [1] = molecular target: T2, HMGB1 Tailless (UniProt P09429 1-163); assay: EMSA; settings: EMSA as in ref 30; binding buffer, salt, pH and temperature not given in the material; scale: fold more protein needed than for bps6197
# T2 sequence (P09429 1-163): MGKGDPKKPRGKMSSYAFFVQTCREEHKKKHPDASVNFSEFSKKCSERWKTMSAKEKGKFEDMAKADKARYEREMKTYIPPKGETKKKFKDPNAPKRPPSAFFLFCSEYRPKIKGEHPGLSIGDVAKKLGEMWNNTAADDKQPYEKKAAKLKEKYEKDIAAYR
# HMGB1 full-length [2] = molecular target: T3, HMGB1 full-length (UniProt P09429 1-215); assay: EMSA; settings: EMSA as in ref 30; binding buffer, salt, pH and temperature not given in the material; scale: fold more protein needed than for bps6197
# T3 sequence (P09429 whole entry): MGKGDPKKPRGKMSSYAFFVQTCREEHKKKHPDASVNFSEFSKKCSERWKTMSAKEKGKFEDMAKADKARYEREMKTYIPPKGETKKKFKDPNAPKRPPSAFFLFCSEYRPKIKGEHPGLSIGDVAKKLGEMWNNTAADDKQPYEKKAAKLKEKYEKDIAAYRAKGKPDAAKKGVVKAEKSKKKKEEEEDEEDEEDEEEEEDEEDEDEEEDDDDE
# HMGB1 Tailless [3] = molecular target: T2, HMGB1 Tailless; assay: EMSA; 0-140 ng tailless HMGB1; EMSA as in ref 30; binding buffer, salt, pH and temperature not given in the material; settings: protein: recombinant; tags: N-terminal His6; label: 5' radiolabel, top strand; blunt
# [4] = molecular target: T1, cMR1 (core RAG1, MBP fusion);cMR2 (core …); assay: EMSA; without HMGB1; similar to 23-RSS, slightly more susceptible to cold 23-RSS; EMSA as in ref 30; binding buffer, salt, pH and temperature not given in the material; settings: protein: recombinant;recombinant; tags: N-terminal MBP;N-terminal MBP; chain copies: 2;1; label: 5' radiolabel, top strand; blunt
# HMGB1 full-length [5] = molecular target: T3, HMGB1 full-length; assay: EMSA; 0-320 ng HMGB1; EMSA as in ref 30; binding buffer, salt, pH and temperature not given in the material; settings: protein: recombinant; tags: N-terminal His6; label: 5' radiolabel, top strand; blunt
# [6] = molecular target: cMR1 (core RAG1, MBP fusion);cMR2 (core RAG2, MBP fusion);HMGB1 full-length (;;, UniProt P15919;P21784;P09429 384-1040;1-387;1-215, ||); assay: EMSA; with HMGB1; similar to 23-RSS; EMSA as in ref 30; binding buffer, salt, pH and temperature not given in the material; settings: protein: recombinant;recombinant;recombinant; tags: N-terminal MBP;N-terminal MBP;N-terminal His6; chain copies: 2;1;1; label: 5' radiolabel, top strand; blunt
# Chain of cMR1 (core RAG1, MBP fusion);cMR2 (core RAG2, MBP fusion);HMGB1 full-length (P09429 whole entry, the tested form may be a part, one chain of several): as the sequence (P09429 whole entry) above
Molecule,binding signal (HMGB1 Tailless [1]),binding signal (HMGB1 full-length [2]),binding signal (HMGB1 Tailless [3]),binding result [4],binding signal (HMGB1 full-length [5]),binding result [6]
23-RSS (consensus),1.5,1.5,–,–,–,–
bps6197 (dsDNA) DNA 1: TCCCCGAAAAGTGCCACCTGACGTCTAAGAAACCATTATTATCATGACATTAACCTATAAA DNA 2: TTTATAGGTTAATGTCATGATAATAATGGTTTCTTAGACGTCAGGTGGCACTTTTCGGGGA,–,–,~1.5 fold less protein needed than for 23-RSS,binds,~1.5 fold less protein needed than for 23-RSS,binds

# From publication PMC2666730, “HMGB1/2 can target DNA for illegitimate cleavage by the RAG1/2 complex”
